Test results: PMC9457596, “Optimization of Bifunctional Antisense Oligonucleotides for Regulation of Mutually Exclusive Alternative Splicing of PKM Gene”

Legend:
hnRNP A1 [1] = target: T1, hnRNP A1 (UniProt P09651 2-196); assay: EMSA; 150 mM KCl, 50 mM L-Arg, 50 mM L-Glu, 1.5 mM MgCl2, 0.2 mM EDTA, 0.05% BME, 20 mM Na2HPO4, pH 7.0, 4 C, 30 min; 0.5 uM RNA, 0.1-60 uM protein (Kd) or 60 uM (scr); settings: protein: recombinant, label: 5'-6-FAM
hnRNP A1 [2] = target: T1, hnRNP A1; assay: EMSA; 60 uM protein, 0.5 uM RNA; 150 mM KCl, 50 mM L-Arg, 50 mM L-Glu, 1.5 mM MgCl2, 0.2 mM EDTA, 0.05% BME, 20 mM Na2HPO4, pH 7.0, 4 C, 30 min; 0.5 uM RNA, 0.1-60 uM protein (Kd) or 60 uM (scr); settings: protein: recombinant; label: 5'-6-FAM

T1 sequence (P09651 2-196): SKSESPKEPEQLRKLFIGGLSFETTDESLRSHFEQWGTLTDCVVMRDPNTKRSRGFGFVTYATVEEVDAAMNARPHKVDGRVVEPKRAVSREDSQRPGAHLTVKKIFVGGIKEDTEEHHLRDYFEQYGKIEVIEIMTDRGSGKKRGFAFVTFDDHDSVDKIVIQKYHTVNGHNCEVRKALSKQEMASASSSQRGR

Binder | binding result (hnRNP A1 [2]) | further results
CAGGUAAGUCAGGUAAGUCAGGUAAGU (ssRNA) [A3] |  | Kd (hnRNP A1 [1]; no UV melting transition): ~1700 nM
UAGGU (ssRNA) [sequence D] | binds | 
AUUUA (ssRNA) [oligo 41] | no binding | 
AAGGUGAU (ssRNA) [oligo 20] | no binding | 
UAGG (ssRNA) [oligo 5] | binds | 
CAGGUAAGUCAGGUAAGU (ssRNA) [A2] |  | Kd (hnRNP A1 [1]; no UV melting transition): ~1700 nM
CAGGUGAGUCAGGUGAGU (structured_RNA) [B2] |  | Kd (hnRNP A1 [1]; duplex/hairpin): 1760 nM
AAGGUAAGU (ssRNA) [oligo 6] | binds | 
UAGGA (ssRNA) [sequence C (3)] | binds | 
CACAGA (ssRNA) [oligo 21] | no binding | 
CAGGUGAGU (ssRNA) [sequence B (2)] | binds | 
CAGGUAAGU (ssRNA) [sequence A (1)] | binds | 
UAGGAUAGGA (ssRNA) [C2] |  | Kd (hnRNP A1 [1]; single-stranded): 1440 nM
UGUAGG (ssRNA) [oligo 7] | binds | 
CAGGUGAGUCAGGUGAGUCAGGUGAGU (structured_RNA) [B3] |  | Kd (hnRNP A1 [1]; duplex/hairpin): 1990 nM
UAGGUUAGGU (structured_RNA) [D2] |  | Kd (hnRNP A1 [1]; G4, intermolecular, two tetrads): 1200 nM
